Earlier results as cited in PMC3018525.
Like-named read-outs stand apart in the source and are kept apart here.

How the values were obtained:
EGF (Homo sapiens) [1] = target: EGF (Homo sapiens) (UniProt P01133)
EGF (Homo sapiens) [2] = target: EGF (Homo sapiens) (UniProt P01133); remark: listed apart in the source

UniProt P01133, sequence (P01133 971-1023): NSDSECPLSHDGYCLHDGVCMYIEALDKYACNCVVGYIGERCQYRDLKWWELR

Substance: EGFR (low-affinity) (from UniProt P00533)
- Kd (EGF (Homo sapiens) [1]): 2 nM

Substance: EGFR (high-affinity) (from UniProt P00533)
- Kd (EGF (Homo sapiens) [2]): 0.3 nM
